T1: p73 (Homo sapiens, UniProt O15350)
T1 construct: expressed in transfected cells; host or cells: COS7
T1 sequence (O15350 1-636): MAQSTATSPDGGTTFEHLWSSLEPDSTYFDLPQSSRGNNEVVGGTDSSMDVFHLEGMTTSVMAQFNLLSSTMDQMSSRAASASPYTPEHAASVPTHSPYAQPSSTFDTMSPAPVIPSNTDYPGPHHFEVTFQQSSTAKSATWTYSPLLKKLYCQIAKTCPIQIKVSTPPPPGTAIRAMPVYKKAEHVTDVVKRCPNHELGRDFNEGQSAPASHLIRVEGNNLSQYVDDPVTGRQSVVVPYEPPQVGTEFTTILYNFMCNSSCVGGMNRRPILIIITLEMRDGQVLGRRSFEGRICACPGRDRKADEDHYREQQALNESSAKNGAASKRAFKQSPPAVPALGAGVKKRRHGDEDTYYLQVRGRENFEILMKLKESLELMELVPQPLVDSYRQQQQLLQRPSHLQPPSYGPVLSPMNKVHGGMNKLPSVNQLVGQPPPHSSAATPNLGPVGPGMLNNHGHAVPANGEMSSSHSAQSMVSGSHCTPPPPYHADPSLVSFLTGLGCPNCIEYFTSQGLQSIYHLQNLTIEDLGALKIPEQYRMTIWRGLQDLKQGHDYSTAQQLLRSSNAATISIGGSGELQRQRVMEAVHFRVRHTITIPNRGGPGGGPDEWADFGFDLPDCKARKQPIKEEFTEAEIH

B1: IKK-α (K44A): IKK-α with 44th lysine substituted by alanine, SEQ ID NO: 25, lacking kinase activity; apoptosis inhibitor (protein)
chain: MERPPGLRPGAGGPWEMRERLGTGGFGNVCLYQHRELDLKIAIASCRLELSTKNRERWCHEIQIMKKLNHANVVKACDVPEELNILIHDVPLLAMEYCSGGDLRKLLNKPENCCGLKESQILSLLSDIGSGIRYLHENKIIHRDLKPENIVLQDVGGKIIHKIIDLGYAKDVDQGSLCTSFVGTLQYLAPELFENKPYTATVDYWSFGTMVFECIAGYRPFLHHLQPFTWHEKIKKKDPKCIFACEEMSGEVRFSSHLPQPNSLCSLIVEPMENWLQLMLNWDPQQRGGPVDLTLKQPRCFVLMDHILNLKIVHILNMTSAKIISFLLPPDESLHSLQSRIERETGINTGSQELLSETGISLDPRKPASQCVLDGVRGCDSYMVYLFDKSKTVYEGPFASRSLSDCVNYIVQDSKIQLPIIQLRKVWAEAVHYVSGLKEDYSRLFQGQRAAMLSLLRYNANLTKMKNTLISASQQLKAKLEFFHKSIQLDLERYSEQMTYGISSEKMLKAWKEMEEKAIHYAEVGVIGYLEDQIMSLHAEIMELQKSPYGRRQGDLMESLEQRAIDLYKQLKHRPSDHSYSDSTEMVKIIVHTVQSQDRVLKELFGHLSKLLGCKQKIIDLLPKVEVALSNIKEADNTVMFMQGKRQKEIWHLLKIACTQSSARSLVGSSLEGAVTPQTSAWLPPTSAEHDHSLSCVVTPQDGETSAQMIEENLNCLGHLSTIIHEANEEQGNSMMNLDWSWLTE
modifications: IKK-alpha(K44A)
B2: UFD2a: UFD2a protein, SEQ ID NO: 26, U-box ubiquitin protein ligase; apoptosis inhibitor (protein, listed as Homo sapiens)
chain: MEELSADEIRRRRLARLAGGQTSQPTTPLTSPQRENPPGPPIAASAPGPSQSLGLNVHNMTPATSPIGASGVAHRSQSSEGVSSLSSSPSNSLETQSQSLSRSQSMDIDGVSCEKSMSQVDVDSGIENMEVDENDRREKRSLSDKEPSSGPEVSEEQALQLVCKIFRVSWKDRDRDVIFLSSLSAQFKQNPKEVFSDFKDLIGQILMEVLMMSTQTRDENPFASLTATSQPIAAAARSPDRNLLLNTGSNPGTSPMFCSVASFGASSLSSLGASGGASNWDSYSDHFTIETCKETDMLNYLIECFDRVGIEEKKAPKMCSQPAVSQLLSNIRSQCISHTALVLQGSLTQPRSLQQPSFLVPYMLCRNLPYGFIQELVRTTHQDEEVFKQIFIPILQGLALAAKECSLDSDYFKYPLMALGELCETKFGKTHPVCNLVASLRLWLPKSLSPGCGRELQRLSYLGAFFSFSVFAEDDVKVVEKYFSGPAITLENTRVVSQSLQHYLELGRQELFKILHSILLNGETREAALSYMAAVVNANMKKAQMQTDDRLVSTDGFMLNFLWVLQQLSTKIKLETVDPTYIFHPRCRITLPNDETRVNATMEDVNDWLTELYGDQPPFSEPKFPTECFFLTLHAHHLSILPSCRRYIRRLRAIRELNRTVEDLKNNESQWKDSPLATRHREMLKRCKTQLKKLVRCKACADAGLLDESFLRRCLNFYGLLIQLLLRILDPAYPDITLPLNSDVPKVFAALPEFYVEDVAEFLFFIVQYSPQALYEPCTQDIVMFLVVMLCNQNYIRNPYLVAKLVEVMFMTNPAVQPRTQKFFEMIENHPLSTKLLVPSLMKFYTDVEHTGATSEFYDKFTIRYHISTIFKSLWQNIAHHGTFMEEFNSGKQFVRYINMLINDTTFLLDESLESLKRIHEVQEEMKNKEQWDQLPRDQQQARQSQLAQDERVSRSYLALATETVDMFHILTKQVQKPFLRPELGPRLAAMLNFNLQQLCGPKCRDLKVENPEKYGFEPKKLLDQLTDIYLQLDCARFAKAIADDQRSYSKELFEEVISKMRKAGIKSTIAIEKFKLLAEKVEEIVAKNARAEIDYSDAPDEFRDPLMDTLMTDPVRLPSGTIMDRSIILRHLLNSPTDPFNRQTLTESMLEPVPELKEQIQAWMREKQNSDH

Assays:
[1] = tested on: U2OS or H1299 cells; assay: Apoptosis induced by cisplatin in transfected cells; format: cell-based, human; settings: U2OS and H1299 (FIGS. 31 and 33)
[2] = target: T1, p73; assay: p73 protein level (stabilization) by immunoblot in cotransfected COS7 cells; format: cell-based; settings: COS7 cotransfection (FIG. 14, 15, 29)
Procedure: Cells were transiently transfected with a total of 2 μg of expression plasmids. After 48 hours of the transfection, the cells were washed with ice-cold PBS and suspended in lysis buffer (pH 8.0; which contained 25 mM Tris-Cl, 137 mM sodium chloride, 1% Triton X-100, 1 mM phenylmethylsulfonyl fluoride (PMSF), and protease inhibitor mix (Roche Molecular Biochemicals)), followed by brief sonication. After centrifugation at 15000 rpm for 10 minutes, the supernatant was collected and assayed for protein concentrations by the Bradford assay (Bio-Rad). Equal amounts of lysates (protein amount: 50 μg) from the whole cells were denatured by boiling in Laemmli SDS-sample buffer, then separated on 10% SDS-polyacrylamide gel (SDS-PAGE), and transferred at room temperature for 1 hour to polyvinylidene difluoride (PVDF) membranes (Immobilon-P; Millipore) in Tris-glycine buffer containing 10% methanol. The membranes were blocked at room temperature for 1 hour with Tris-buffered saline (TBS-T) containing 5% skim milk and 0.1% Tween 20.
As previously reported, some protein kinases (e.g., c-Abl and PKCδ) that interact with p73 can stabilize p73. To confirm whether IKK-α influenced the stabilization of p73, COS7 cells were transfected with a constant amount of HA-p73α expression plasmid together with or without varying amounts of IKK-α expression plasmids and examined for HA-p73α protein levels. […] Next, whether IKK-β influenced the stabilization of p73 and p53 was investigated by transient transfection.

[3] = tested on: endogenous p53; assay: Amount of endogenous p53 in cisplatin-treated U2OS cells (immunoblot); format: cell-based, human; settings: cisplatin 24 hours (FIG. 30)
[4] = target: T1, p73; assay: Co-immunoprecipitation with p73 in transfected COS7 cells; format: binding; settings: COS7, co-immunoprecipitation (FIG. 10, FIG. 28)
Procedure: Whole cell lysates were centrifuged at 15000 rpm for 15 minutes to remove cell debris. The obtained supernatant was pretreated at 4° C. for 30 minutes with protein G-Sepharose (50% slurry, 30 μL; Amersham Pharmacia Biotech). After centrifugation, the supernatant was incubated at 4° C. for 2 hours with an anti-HA polyclonal (Medical and Biological Laboratories) or anti-FLAG monoclonal antibody. The immunocomplexes were precipitated at 4° C. for 30 minutes with protein G-Sepharose beads. After collection by brief centrifugation, the immunoprecipitates were washed three times with lysis buffer, then suspended in 30 μL of 2×Laemmli SDS sample buffer, and treated at 100° C. for 5 minutes. The supernatant was loaded onto 10% SDS-PAGE and analyzed by immunoblot as described above.
To investigate whether IKK-α interacted with p73 in cultured mammal cells, whole cell lysates were prepared from transfected COS7 cells, then immunoprecipitated with an anti-FLAG or anti-HA antibody, and analyzed by immunoblot using an anti-p73 or anti-FLAG antibody, respectively. […] Likewise, HA-p73β was co-immunoprecipitated with FLAG-IKK-α (data not shown). […] To identify determinants of p73 participating in the interaction with IKK-α, several deletion mutants of p73 fused to GST were prepared and examined for their abilities to bind to FLAG-IKK-α by in-vitro pull-down assay. These mutants were designed on the basis of the functional domains of p73 including transactivation, DNA-binding, oligomerization, and SAM domains (FIG. 12).

[5] = tested on: H1299 cells; assay: p53-dependent apoptosis (DAPI staining, abnormal nuclei); format: cell-based, human; settings: H1299, cotransfection with p53, 48 hours (FIG. 36)
Procedure: (§1) To examine the influence of UFD2a on p73-dependent apoptosis, the following experiment was performed. p53-deficient H1299 cells were transiently cotransfected with the given combinations (HA-p73α, p53, and FLAG-UFD2a) of expression plasmids. After 48 hours of the transfection, the cells were fixed at room temperature for 30 minutes in 3.7% formaldehyde, then permeabilized at room temperature for 5 minutes with 0.2% Triton X-100, and blocked for 1 hour with 3% BSA. The cells were washed three times with 1×PBS and stained at room temperature for 20 minutes with DAPI (4′,6-diamidino-2-phenylindole; 1 μg/mL). Of the cells transfected with GFP, cells having abnormal nuclei were counted under a microscope.

[6] = tested on: p53; assay: Amount of endogenous p53 in COS7 cells (immunoblot); format: cell-based, African green monkey; settings: COS7, cisplatin 20 μg/mL for 24 hours (FIG. 35)
Procedure: To examine the influence of UFD2a on endogenous p73, the following experiment was performed. COS7 cells were transfected or untransfected with a FLAG-UFD2a expression plasmid. After 24 hours of the transfection, the cells were exposed to cisplatin (final concentration: 20 μg/mL) for 24 hours or left untreated. Whole cell lysates were prepared from the transfected cells and analyzed for p73α, p53, and UFD2a expression by immunoblot. Actin was utilized as a control for addition.

[7] = tested on: H1299 cells; assay: p73-dependent apoptosis (DAPI staining, abnormal nuclei); format: cell-based, human; settings: H1299, cotransfection with HA-p73α, 48 hours (FIG. 36)
Procedure: as §1

Molecule	apoptosis induced by cisplatin [1]	amount of HA-p73α [2]	amount of endogenous p53 [3]	complex formation with HA-p73α [4]	p53-dependent apoptosis [5]	amount of endogenous p53 [6]	number of apoptotic cells, p73-dependent [7]
B1	remarkably inhibited	almost no effect on the intracellular level of exogenously expressed HA-p73α	no remarkable effect on the amount of endogenous p53	maintained the ability to form complexes with p73α			
B2					could not suppress p53-dependent apoptosis	no influence on the amount of endogenous p53	decreased the number of apoptotic cells

Source: patent publication US7618787B2, “Method of screening compound capable of accelerating or inhibiting apoptosis, apoptosis accelarator and apoptosis inhibitor” (Hisamitsu Pharmaceutical Co., Inc., priority 2004, dated 2009)
